Data from publication PMC6499997, “SGIP1α functions as a selective endocytic adaptor for the internalization of synaptotagmin 1 at synapses” (Molecular Brain, 2019).

Biological target: T1, Recombinant human GST-Syt1-C2AB domain (human, UniProt P21579 81-422)
T1 construct: human synaptotagmin 1, cytoplasmic C2AB domains (C2A and C2B); Construct was a gift (Dr. Namgi Lee); also called C2AB fusion protein; GST-fused cytoplasmic (C2AB) domains of Syt1; not shown: GST, N-terminal, kept
Assay: pull-down; GST fusion protein on beads incubated with cleared extracts of transfected HEK293T cells (1 mg at 1 mg/ml) for 4 h at 4 °C; lysis buffer 20 mM Tris-HCl pH 8.0, 137 mM NaCl, 2 mM EDTA, 1% Triton X-100; bound proteins detected by immunoblot for HA
Conditions: one partner purified

T1 sequence (P21579 81-422): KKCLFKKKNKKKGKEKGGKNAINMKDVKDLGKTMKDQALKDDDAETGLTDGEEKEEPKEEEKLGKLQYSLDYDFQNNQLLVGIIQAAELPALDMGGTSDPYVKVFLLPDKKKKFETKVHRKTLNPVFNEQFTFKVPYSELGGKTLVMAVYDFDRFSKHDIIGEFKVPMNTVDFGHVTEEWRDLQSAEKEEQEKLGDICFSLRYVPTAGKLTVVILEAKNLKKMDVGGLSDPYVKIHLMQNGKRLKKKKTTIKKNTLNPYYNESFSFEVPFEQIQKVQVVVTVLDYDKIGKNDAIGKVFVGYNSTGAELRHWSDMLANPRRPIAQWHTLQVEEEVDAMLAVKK

B1: HA-SGIP1α-mut (W771A/K781A) (natural protein, mouse, UniProt Q8VD37-6 1-854, looked up)
chain: MMEGLKKRTRKAFGIRKKEKDTDSTGSPDRDGMQGKKKAQKTQLLLTSCFWLRALSLTLSQQPSPHEPPYHSKAECAREGGKKASKKSNGAPNGFYAEIDWERYNSPELDEEGYSIRPEEPGSTKGKHFYSSSESEEEEESHKKFNIKIKPLQSKDVLKNAATVDELKASIGNIALSPSPVRKSPRRSPGAIKRNLSSEEVARPRRSTPTPELTSKKPLDDTLALAPLFGPPLESAFDEQKTEVLLDQPEIWGSGQPMNPSTESPELARPFPTGTPPPLPPKTVPATPPRTGSPLTVATGNDQAATEAKIEKLPSISDLDSIFGPVLSPKSVAVNTEEKWVHFSDASPEHVTPELTPREQVVTPPAASDIPADSPAPAPPGPTGSAGPPGPPGPRHVPSPLNLEEVQKKVAEQTFIKDDYLETLSSPKECGLGQRATPPPPPPPTYRTVVSSPGPGSGSGTGTTSGASSPARPATPLVPCSTTPPPPPPRPPSRPKLPPGKPGVGDVSRPFSPPIHSSSPPPIAPLARAESTSSISSTNSLSAATTPTVENEQPSLVWFDRGKFYLTFEGSSRGPSPLTMGAQDTLPVAAAFTETVNAYFKGADPSKCIVKITGEMVLSFPAGITRHFANNPSPAALTFRVVNSSRLEHVLPNPQLLCCDNTQNDANTKEFWVNMPNLMTHLKKVSEQKPQATYYNVDMLKYQVSAQGIQSTPLNLAVNWRCEPASTDLRIDYKYNTDAMSTAVALNNVQFLVPIDGGVTKLQAVLPPAVANAEQQRILWAIPDISQKSENGGVGSLLARFQLSEGPSKPSPLVVQFTSEGSTLSGCDIELVGAGYRFSLIKKRFAAGKYLADN
notes: numbers count on: SGIP1α (NM_001285852.1); Made by site-directed mutagenesis; also called HA-SGIP1α mutant W771A/K781A; W771A/K781A mutant; source: HEK293T, transfected, in lysate
relative band intensity (SGIP1α = 1): 0.2 relative to SGIP1α
